Source: publication PMC11128890 (Frontiers in Cell and Developmental Biology, 2024)

Tests used:
[1] = target: KDR domain 1 (D1) fused to GST; test: ELISA-type binding assay; conditions: GST-KDR-D1 100 μg/mL, read off a plot
[2] = target: VEGFR2/KDR (Homo sapiens) (UniProt P35968); conditions: cited from earlier work
[3] = target: T1, KDR domain 1 (D1) fused to GST; test: ELISA-type binding assay; conditions: chain shown with the change, read off a plot
T1 chain: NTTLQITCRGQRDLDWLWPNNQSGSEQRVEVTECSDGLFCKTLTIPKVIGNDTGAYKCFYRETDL

[4] = target: T2, KDR domain 1 (D1), His-tagged; test: SPR; KDR D1 (His-tagged) immobilised on CM5 chip by amine coupling; HBD injected at 50 μL/min for 1.8 min; HBS-EP buffer (0.01 M HEPES pH 7.4, 0.15 M NaCl, 3 mM EDTA, 0.0005% P20); conditions: both partners purified
T2 construct: first IgG-like domain (D1) of VEGFR2/KDR, amplified from full-length KDR cDNA; Cloned into the BamHI/EcoRI site of pET28a; also called KDR D1; KDR D1 (His-tagged)
T2 chain: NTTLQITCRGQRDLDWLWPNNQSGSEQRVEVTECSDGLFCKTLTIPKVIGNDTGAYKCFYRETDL

[5] = target: T3, recombinant soluble integrin αvβ3 (UniProt P06756 31-987; P05106 27-718); test: SPR; soluble αvβ3 (His-tagged) immobilised on CM5 chip by amine coupling; HBD injected at 50 μL/min for 1.8 min; HBS-P buffer (0.01 M HEPES pH 7.4, 0.15 M NaCl, 0.0005% P20) with 1 mM Mn2+; conditions: both partners purified
T3 construct: integrin αv subunit, soluble expression construct; integrin β3 subunit, soluble expression construct; PDB 1L5G is the αvβ3 structure used for docking, not necessarily the same limits; also called soluble αvβ3; source: CHO K1 cells, soluble αv and β3 expression constructs, purified (Ni-NTA)
T3 sequence (P06756 31-987, chain 1 of 2): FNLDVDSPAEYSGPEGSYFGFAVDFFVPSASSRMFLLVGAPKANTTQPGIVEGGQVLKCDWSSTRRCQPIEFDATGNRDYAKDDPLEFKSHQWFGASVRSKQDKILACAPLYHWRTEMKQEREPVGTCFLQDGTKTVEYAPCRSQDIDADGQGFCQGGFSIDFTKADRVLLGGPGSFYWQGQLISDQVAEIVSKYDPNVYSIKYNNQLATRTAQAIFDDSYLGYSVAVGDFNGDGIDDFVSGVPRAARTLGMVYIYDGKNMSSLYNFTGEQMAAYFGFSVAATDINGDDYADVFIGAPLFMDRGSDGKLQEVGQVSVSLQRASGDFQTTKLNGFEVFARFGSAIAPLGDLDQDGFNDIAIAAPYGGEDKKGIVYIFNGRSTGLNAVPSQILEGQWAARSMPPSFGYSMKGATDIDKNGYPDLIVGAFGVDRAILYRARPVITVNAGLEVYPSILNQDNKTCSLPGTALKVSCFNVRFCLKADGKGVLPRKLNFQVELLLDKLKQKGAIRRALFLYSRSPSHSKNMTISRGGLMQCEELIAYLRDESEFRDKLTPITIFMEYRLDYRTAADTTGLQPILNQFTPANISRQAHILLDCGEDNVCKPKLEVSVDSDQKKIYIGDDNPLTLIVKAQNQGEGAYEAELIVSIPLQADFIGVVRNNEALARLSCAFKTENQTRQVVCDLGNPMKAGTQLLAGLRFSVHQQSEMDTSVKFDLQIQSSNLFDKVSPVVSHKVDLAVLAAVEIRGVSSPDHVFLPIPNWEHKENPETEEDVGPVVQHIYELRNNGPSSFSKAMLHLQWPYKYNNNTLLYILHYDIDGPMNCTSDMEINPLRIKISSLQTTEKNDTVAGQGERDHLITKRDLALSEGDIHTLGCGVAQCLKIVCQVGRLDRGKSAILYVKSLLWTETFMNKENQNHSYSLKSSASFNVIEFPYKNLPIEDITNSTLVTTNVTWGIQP
T3 sequence (P05106 27-718, chain 2 of 2): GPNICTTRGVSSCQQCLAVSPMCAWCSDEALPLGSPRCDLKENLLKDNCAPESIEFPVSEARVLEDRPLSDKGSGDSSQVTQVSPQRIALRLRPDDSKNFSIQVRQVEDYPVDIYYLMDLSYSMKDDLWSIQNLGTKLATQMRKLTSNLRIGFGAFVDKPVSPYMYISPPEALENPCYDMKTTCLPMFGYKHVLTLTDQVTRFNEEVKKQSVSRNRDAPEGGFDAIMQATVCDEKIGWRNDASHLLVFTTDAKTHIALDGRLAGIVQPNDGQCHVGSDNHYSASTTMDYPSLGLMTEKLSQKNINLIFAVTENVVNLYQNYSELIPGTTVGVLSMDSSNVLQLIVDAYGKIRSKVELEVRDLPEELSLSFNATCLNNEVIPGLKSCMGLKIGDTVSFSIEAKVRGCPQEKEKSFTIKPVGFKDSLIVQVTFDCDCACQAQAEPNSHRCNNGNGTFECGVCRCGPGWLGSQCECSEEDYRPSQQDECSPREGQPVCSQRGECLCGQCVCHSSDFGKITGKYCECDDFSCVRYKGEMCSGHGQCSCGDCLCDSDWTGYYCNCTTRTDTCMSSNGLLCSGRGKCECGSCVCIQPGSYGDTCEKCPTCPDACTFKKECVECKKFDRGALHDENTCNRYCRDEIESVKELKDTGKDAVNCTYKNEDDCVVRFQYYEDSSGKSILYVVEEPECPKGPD

[6] = target: T4, KDR domain 1 (D1), His-tagged; test: SPR
T4 chain: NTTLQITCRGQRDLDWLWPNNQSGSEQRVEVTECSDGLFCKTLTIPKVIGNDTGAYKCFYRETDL

[7] = target: T3, recombinant soluble integrin αvβ3; test: ELISA; HBD, NTD or HBD mutants coated on 96-well plates, blocked with BSA; soluble αvβ3 (1 μg/mL) in HEPES-Tyrode buffer + 1 mM MnCl2, 1 h room temperature; bound αvβ3 detected with anti-β3 mAb AV10; binding to HBD inhibited by mAb 7E3 and cation-dependent; conditions: both partners purified
[8] = HBD at 10 µg/ml, parent: est. 0.93
[9] = HBD coated at 20 µg/ml (highest point of the curve), parent: est. 1.4
[10] = GST-KDR-D1 100 μg/mL, parent: est. 0.51

Sequence of VEGFR2/KDR (Homo sapiens) (P35968 20-1356): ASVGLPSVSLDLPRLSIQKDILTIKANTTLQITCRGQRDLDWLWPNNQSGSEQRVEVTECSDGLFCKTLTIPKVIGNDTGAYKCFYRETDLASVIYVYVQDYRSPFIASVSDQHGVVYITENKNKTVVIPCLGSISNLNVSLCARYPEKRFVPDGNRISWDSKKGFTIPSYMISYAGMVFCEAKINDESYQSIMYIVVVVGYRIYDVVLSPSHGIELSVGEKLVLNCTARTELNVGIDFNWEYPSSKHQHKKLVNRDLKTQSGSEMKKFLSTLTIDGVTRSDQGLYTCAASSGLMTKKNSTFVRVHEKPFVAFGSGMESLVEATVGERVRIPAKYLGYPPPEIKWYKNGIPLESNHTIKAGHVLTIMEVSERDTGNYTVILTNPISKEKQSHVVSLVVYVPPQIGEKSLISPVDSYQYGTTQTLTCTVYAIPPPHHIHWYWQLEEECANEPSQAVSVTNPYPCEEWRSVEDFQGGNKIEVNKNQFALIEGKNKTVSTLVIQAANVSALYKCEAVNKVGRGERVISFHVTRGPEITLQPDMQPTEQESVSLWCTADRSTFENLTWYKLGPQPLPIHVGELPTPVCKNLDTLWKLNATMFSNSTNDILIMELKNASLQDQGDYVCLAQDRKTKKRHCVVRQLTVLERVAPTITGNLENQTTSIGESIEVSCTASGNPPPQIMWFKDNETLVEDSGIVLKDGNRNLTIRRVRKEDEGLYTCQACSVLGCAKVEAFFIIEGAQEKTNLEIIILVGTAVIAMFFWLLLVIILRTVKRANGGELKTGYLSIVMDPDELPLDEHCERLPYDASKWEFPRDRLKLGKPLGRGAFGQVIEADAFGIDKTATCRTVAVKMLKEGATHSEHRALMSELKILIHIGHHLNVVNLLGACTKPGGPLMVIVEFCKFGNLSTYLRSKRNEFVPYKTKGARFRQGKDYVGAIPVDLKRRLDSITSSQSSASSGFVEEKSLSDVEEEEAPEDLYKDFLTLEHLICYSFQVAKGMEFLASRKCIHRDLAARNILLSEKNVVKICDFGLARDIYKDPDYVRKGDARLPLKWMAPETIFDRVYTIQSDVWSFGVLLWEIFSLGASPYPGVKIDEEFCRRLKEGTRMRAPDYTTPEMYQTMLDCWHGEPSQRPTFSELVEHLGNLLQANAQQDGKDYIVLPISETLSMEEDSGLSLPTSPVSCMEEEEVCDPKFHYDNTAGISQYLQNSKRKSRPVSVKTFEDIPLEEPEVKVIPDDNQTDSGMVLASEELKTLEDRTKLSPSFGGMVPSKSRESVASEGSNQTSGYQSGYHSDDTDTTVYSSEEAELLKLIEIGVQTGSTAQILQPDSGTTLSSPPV

With “VEGF165 heparin-binding domain (HBD), wild type K136E” the response [1, 8] was 1 OD450.

In the case of VEGF165 (from UniProt P15692), the Kd [2] is given as 0.14 nM.

“VEGF165 heparin-binding domain (HBD), wild type K140E” showed a response [1, 8] of 0.73 OD450 and a response [1, 9] of 0.89 OD450.

“VEGF165 heparin-binding domain (HBD), wild type K145E” gave a response [1, 8] of 0.74 OD450 and a response [1, 9] of 1.1 OD450.

With PCGPCSERREHLFVQDPQTCKCSCKNTDSRCKARQLELNERTCRCDKPRR [VEGF165 heparin-binding domain (HBD), wild type K125E] the response [3, 10] was 0.31 OD450.

PCGPCSEEEEHLFVQDPQTCKCSCKNTDSRCKARQLELNERTCRCDKPRR [VEGF165 heparin-binding domain (HBD), wild type R123E; R124E; K125E] gave a response [3, 10] of 0.06 OD450, a response ([3]; HBD at 10 µg/ml, GST-KDR-D1 100 μg/mL, parent: est. 0.93) of 0.14 OD450 and a response ([3]; HBD coated at 20 µg/ml (highest point of the curve), GST-KDR-D1 100 μg/mL, parent: est. 1.4) of 0.16 OD450.

In the case of PCGPCSEERKHLFVQDPQTCKCSCKNTDSRCKARQLELNERTCRCDKPRR [VEGF165 heparin-binding domain (HBD), wild type R123E], the response [3, 10] is reported as 0.14 OD450.

Work on PCGPCSEREKHLFVQDPQTCKCSCKNTDSRCKARQLELNERTCRCDKPRR [VEGF165 heparin-binding domain (HBD), wild type R124E] yielded a response [3, 10] of 0.2 OD450.

For PCGPCSEAAAHLFVQDPQTCKCSCANTDSACKAAQLELNERTCRCDKPRR [VEGF165 heparin-binding domain (HBD), wild type R123A; R124A; K125A; K140A; R145A; R149A], the response ([3]; left graph (dose-response), HBD coated at 10 µg/ml, soluble GST-tagged KDR fragment 100 μg/mL, parent: est. 0.77) was 0.1 OD450, the response ([3]; left graph (dose-response), HBD coated at 20 µg/ml, soluble GST-tagged KDR fragment 100 μg/mL, parent: est. 1.2) was 0.16 OD450 and the response ([3]; right graph (bar chart), 20 µg/ml, n=3, soluble GST-tagged KDR fragment 100 μg/mL, parent: est. 1.4) was 0.13 OD450.

B1: VEGF165 heparin-binding domain (HBD), wild type (domain or fragment, human)
chain: PCGPCSERRKHLFVQDPQTCKCSCKNTDSRCKARQLELNERTCRCDKPRR
notes: Cloned into the BamHI/EcoRI site of pET28a; PDB 2VGH is the HBD structure used for docking; also called VEGF165-HBD; VEGF165 HBD
Work on B1 yielded a Kd [4] of roughly 100 nM, a Kd [5] of 470 nM and a Kd [6] of 109 nM.

PCGPCSEAAAHLFVQDPQTCKCSCKNTDSRCKARQLELNERTCRCDKPRR (domain or fragment, human, the substitutions are to be applied) [VEGF165 HBD R123A/R124A/K125A mutant]: binds [7].

PCGPCSERRKHLFVQDPQTCKCSCANTDSACKAAQLELNERTCRCDKPRR (domain or fragment, human, the substitutions are to be applied) [VEGF165 HBD K140A/R145A/R149A mutant]: binds [7].
